T1: MAGE-A4 peptide on HLA-A*02:01 (human)
T1 peptide: GVYDGREHTV

T2: MAGE-A8 peptide on HLA-A*02:01 (human)
T2 peptide: GLYDGREHSV


Columns and labels:
[1] = target: T3, soluble HLA-A2 MAGE-A4 (…) tetramer (human); assay: flow cytometry tetramer staining; % with MAGE-A4 tetramer divided by % with MAGE-A8 tetramer (reference)
T3 construct: Bought tetramer reagent; also called MAGE-A4/HLA tetramer reagent; HLA-A02:01 MAGE-A4 tetramer
Protocol: (§1) Samples were then analyzed on an LSRFortessa X-20 (BD Biosciences, San Jose, Calif.). […] However, a more stringent cutoff, such as 3%, could be used to separate out Ag+ TCRs that behave better in the binding assay. Ag+ TCRs were determined by Next Generation Sequencing.

[2] = target: T4, soluble HLA-A2 MAGE-A8 (…) tetramer (human); assay: flow cytometry, HLA-A2 MAGE-A8 (…) tetramer staining of CHO cells transfected with the TCR
T4 construct: Bought tetramer reagent; also called MAGE-A8/HLA tetramer reagent; HLA-A02:01 MAGE-A8 tetramer
Protocol: as §1

[3] = target: T1, MAGE-A4 peptide on HLA-A*02:01; assay: multimer staining
[4] = target: T3, soluble HLA-A2 MAGE-A4 (…) tetramer; assay: flow cytometry, HLA-A2 MAGE-A4 (…) tetramer staining of CHO cells transfected with the TCR
Protocol: as §1

[5] = target: T2, MAGE-A8 peptide on HLA-A*02:01; assay: multimer staining

| MAGE-A4/MAGE-A8 (ratio of % tetramer in Ag+ gate) [1] | % tetramer in Ag+ gate (MAGE-A8) [2] [%] | binding result [3] | % tetramer in Ag+ gate (MAGE-A4) [4] [%] | binding result [5] | Binder |
| --- | --- | --- | --- | --- | --- |
| 9.92 | 1.24 | recognises | 12.3 |  | PN45418 (TCR, V domains shown, stained with anti-mouse TCR constant region H57-597; full-length chains on transfected CHO cells; also called TCR No. 46) V domain 1: EDQVTQSPEALRLQEGESSSLNCSYTVSGLRGLFWYRQDPGKGPEFLFTLYSAGEEKEKERLKATLTKKESFLHITAPKPEDSATYLCAVQPSYSGAGSYQLTFGKGTKLSVIP V domain 2: EAQVTQNPRYLITVTGKKLTVTCSQNMNHEYMSWYRQDPGLGLRQIYYSMNVEVTDKGDVPEGYKVSRKEKRNFPLILESPSPNQTSLYFCASSPGTGGFSPLHFGNGTRLTVT |
| 2.08 | 16.7 | recognises | 34.7 | recognises | PN45460 (TCR, V domains shown, full-length chains on transfected CHO cells; also called TCR No. 49) V domain 1: GNSVTQMEGPVTLSEEAFLTINCTYTATGYPSLFWYVQYPGEGLQLLLKATKADDKGSNKGFEATYRKETTSFHLEKGSVQVSDSAVYFCALSDTRDDKIIFGKGTRLHILP V domain 2: EAQVTQSPRYLITVTGKKLTVTCSQNMNHEYMSWYRQDPGLGLRQIYYSMNVEVTDKGDVPEGYKVSRKEKRNFPLILESPSPNQTSLYFCASSPGTGGFSPLHFGNGTRLTVT |
| 991 |  | recognises | 56.5 |  | PN45593 (TCR, V domains shown, stained with anti-mouse TCR constant region H57-597; full-length chains on transfected CHO cells; also called TCR No. 40) V domain 1: AQKITQTQPGMFVQEKEAVTLDCTYDTSDPSYGLFWYKQPSSGEMIFLIYQGSYDQQNATEGRYSLNFQKARKSANLVISASQLGDSAMYFCAMREGPGNNARLMFGDGTQLVVKP V domain 2: NAGVTQTPKFRVLKTGQSMTLLCAQDMNHEYMYWYRQDPGMGLRLIHYSVGEGTTAKGEVPDGYNVSRLKKQNFLLGLESAAPSQTSVYFCASSYWDRGSPLHFGNGTRLTVT |
| 18.7 |  | recognises | 3.18 |  | PN45581 (TCR, V domains shown, stained with anti-mouse TCR constant region H57-597; full-length chains on transfected CHO cells; also called TCR No. 44) V domain 1: AQKITQTQPGMFVQEKEAVTLDCTYDTSDPSYGLFWYKQPSSGEMIFLIYQGSYDQQNATEGRYSLNFQKARKSANLVISASQLGDSAMYFCAMREGPGNNARLMFGDGTQLVVKP V domain 2: EAQVTQTPRYLITVTGKKLTVTCSQNMNHEYMSWYRQDPGLGLRQIYYSMNVEVTDKGDVPEGYKVSRKEKRNFPLILESPSPNQTSLYFCASSLWTGGGYTFGSGTRLTVV |
| 1.43 | 66.3 | recognises | 94.7 | recognises | PN45557 (TCR, V domains shown, full-length chains on transfected CHO cells; also called TCR No. 52) V domain 1: AQKITQTQPGMFVQEKEAVTLDCTYDTSDPSYGLFWYKQPSSGEMIFLIYQGSYDQQNATEGRYSLNFQKARKSANLVISASQLGDSAMYFCAMREGPGSGNTGKLIFGQGTTLQVKP V domain 2: NAGVTQTPKFRILKIGQSMTLQCAQDMNHNYMYWYRQDPGMGLKLIYYSVGAGITDKGEVPNGYNVSRSTTEYFPLRLELAAPSQTSVYFCASSYSEWQNYGYTFGSGTRLTVV |
| 1.23 | 60.6 | recognises | 74.8 | recognises | PN45546 (TCR, V domains shown, full-length chains on transfected CHO cells; also called TCR No. 53) V domain 1: AQTVTQSQPEMSVQEAETVTLSCTYDTSESDYYLFWYKQPPSRQMILVIRQEAYKQQNATENRFSVNFQKAAKSFSLKISDSQLGDAAMYFCAYRSGAGGTSYGKLTFGQGTILTVHP V domain 2: DAGVTQSPTHLIKTRGQQVTLRCSPISGHKSVSWYQQVLGQGPQFIFQYYEKEERGRGNFPDRFSARQFPNYSSELNVNALLLGDSALYLCASSIRDTYGYTFGSGTRLTVV |
| 1150 |  | recognises | 11.5 | no recognition | PN45515 (TCR, V domains shown, stained with anti-mouse TCR constant region H57-597; full-length chains on transfected CHO cells; also called TCR No. 39) V domain 1: DAKTTQPPSMDCAEGRAANLPCNHSTISGNEYVYWYRQIHSQGPQYIIHGLKNNETNEMASLIITEDRKSSTLILPHATLRDTAVYYCIVRPYNAGNNRKLIWGLGTSLAVNP V domain 2: DVKVTQSSRYLVKRTGEKVFLECVQDMDHENMFWYRQDPGLGLRLIYFSYDVKMKEKGDIPEGYSVSREKKERFSLILESASTNQTSMYLCASSFGGGYYGYTFGSGTRLTVV |
| 2.5 | 6.39 | recognises | 16 | recognises | PN45489 (TCR, V domains shown, stained with anti-mouse TCR constant region H57-597; full-length chains on transfected CHO cells; also called TCR No. 48) V domain 1: TQLLEQSPQFLSIQEGENLTVYCNSSSVFSSLQWYRQEPGEGPVLLVTVVTGGEVKKLKRLTFQFGDARKDSSLHITAAQPGDTGLYLCAEDGGSQGNLIFGKGTKLSVKP V domain 2: DVKVTQTSRYLVKRTGEKVFLECVQDMDHENMFWYRQDPGLGLRLIYFSYDVKMKEKGDIPEGYSVSREKKERFSLILESASTNQTSMYLCASSLQGRYYGYTFGSGTRLTVV |
| 1.97 | 1.88 | recognises | 3.7 | recognises | PN45494 (TCR, V domains shown, full-length chains on transfected CHO cells; also called TCR No. 50) V domain 1: GNSVTQIEGPVTLSEEAFLTINCTYTATGYPSLFWYVQYPGEGLQLLLKATKADDKGSNKGFEATYRKETTSFHLEKGSVQVSDSAVYFCALSDTRDDKTIFGKGTRLHILP V domain 2: DVKVTQSSRYLVKRTGEKVFLECVQDMDHENMFWYRQDPGLGLRLIYFSYDVKMKEKGDIPEGYSVSREKKERFSLILESASTNQTSMYLCASSLQGRYYGYTFGSGTRLTVV |
| 498 |  | recognises | 59.8 |  | PN45539 (TCR, V domains shown, stained with anti-mouse TCR constant region H57-597; full-length chains on transfected CHO cells; also called TCR No. 41) V domain 1: DAKTTQPPSMDCAEGRAANLPCNHSTISGNEYVYWYRQIHSQGPQYIIHGLKNNETNEMASLIITEDRKSSTLILPHATLRDTAVYYCIVRPYNAGNNRKLIWGLGTSLAVNP V domain 2: DVKVTQSSRYLVKRTGEKVFLECVQDMDHENMFWYRQDPGLGLRLIYFSYDVKMKEKGDIPEGYSVSREKKERFSLILESASTNQTSMYLCASSFEGGYYGYTFGSGTRLTVV |
| 1.21 | 72.9 | recognises | 87.9 | recognises | PN45481 (TCR, V domains shown, full-length chains on transfected CHO cells; also called TCR No. 54) V domain 1: GNSVTQMEGPVTLSEEAFLTINCTYTATGYPSLFWYVQYPGEGLQLLLKATKADDKGSNKGFEATYRKETTSFHLEKGSVQVSDSAVYFCALSDTRDDKIIFGKGTRLHILP V domain 2: DVKVTQSSRYLVKRTGEKVFLECVQDMDHENMFWYRQDPGLGLRLIYFSYDVKMKEKGDIPEGYSVSREKKERFSLILESASTNQTSMYLCASSLQGRYYGYTFGSGTRLTVV |

Source: patent US20220324939A1 (Regeneron, published 2022)
